± gives the uncertainty stated by the source.
Test: protein stability index of a GFP-peptide fusion (yeast GPS) (PSI 1-4); higher = more stable; sorted into four equal gates, so the index is relative within each strain
Outline: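 Mid-log yeast cultures in leucine-free medium, carrying a pooled plasmid library, were sorted into four equal gates by their GFP/Cherry fluorescence ratio. Each plasmid expressed Cherry along with GFP fused upstream of a tiled 17-residue yeast protein peptide. Plasmids recovered from each gate were PCR-amplified and Illumina-sequenced, with reads assigned to strains by barcodes. The protein stability index was obtained by summing each gate's read frequency weighted by its gate number.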

| Sequence | protein stability index (doa10∆) | protein stability index (pdr5∆) | protein stability index (san1∆) | protein stability index (ubr1∆) |
| --- | --- | --- | --- | --- |
| KLYFQLFLNTGCLSVLY [SRP68] | 1.47 ± 0.038 | 1.19 ± 0.041 | 1.19 ± 0.1 | 1.21 ± 0.043 |
| RTYSKTYSTPKRPYESS [RPS9A] | 2.19 ± 0.055 | 2.23 ± 0.066 | 2.46 ± 0.053 | 2.53 ± 0.043 |
| RLGSEADAKAFLDSMAQ [FAS2] | 3.38 ± 0.091 | 3.44 ± 0.081 | 3.21 ± 0.062 | 3.33 ± 0.11 |
| INPESREIVMPAHTKYM [ITC1] | 1.63 ± 0.17 | 1.5 ± 0.2 | 1.69 ± 0.14 | 2.18 ± 0.11 |
| TVFLPMVGLVDPDKLKP [RPT5] | 2.77 ± 0.061 | 2.66 ± 0.079 | 2.47 ± 0.058 | 2.44 ± 0.062 |
| REIHNEAESQLRAAQQQ [FAS2] | 2.91 ± 0.088 | 2.36 ± 0.07 | 2.86 ± 0.076 | 2.91 ± 0.053 |
| KKPLSMALNKVLITDHI [CDC53] | 1.93 ± 0.04 | 2.24 ± 0.038 | 2.18 ± 0.05 | 2.12 ± 0.028 |
| TSPVTGATEKRKCAKPF [CSL4] | 1.89 ± 0.23 | 1.27 ± 0.15 |  |  |
| FQKAQGSYAGHRKHIAV [YCG1] |  | 2.11 ± 0.28 | 2.29 ± 0.22 | 2.46 ± 0.095 |
| NPHDGVNSIALFVGTDR [RPN14] | 2.08 ± 0.14 | 2.42 ± 0.096 | 2.33 ± 0.076 | 2.99 ± 0.11 |
| ELLETVSLTKRKQEREI [YIL149C/MLP2] | 1.43 ± 0.095 | 1.61 ± 0.07 | 1.5 ± 0.19 | 1.12 ± 0.036 |
| NSTASSSNISPEQVYSL [ARP7] | 2.57 ± 0.05 | 2.78 ± 0.046 | 2.63 ± 0.051 | 2.88 ± 0.039 |
| FQNLELETEQLSSELDS [SMC2] | 2.08 ± 0.12 | 2.58 ± 0.11 | 1.55 ± 0.14 | 2.69 ± 0.13 |
| VLDVDPKYAKQKDKSDT [ISW2] | 2.91 ± 0.11 | 3.01 ± 0.069 | 3.05 ± 0.14 | 3.03 ± 0.084 |
| SVMDPITSKRKAELLLK [DIS3] | 2.83 ± 0.088 | 2.76 ± 0.12 | 2.55 ± 0.12 | 2.85 ± 0.085 |
| SSNVQQPQQQLGDMENN [RTT102] | 3.21 ± 0.19 | 3.29 ± 0.12 | 3.11 ± 0.088 | 3.21 ± 0.17 |
| VKKVIEINPFLLGTMAG [PRE2] | 1.37 ± 0.14 | 1.86 ± 0.18 | 1.38 ± 0.28 |  |
| SKNLGEINTALNTLLVT [SWI1] | 1.23 ± 0.077 | 1.79 ± 0.054 | 1.57 ± 0.11 | 1.46 ± 0.066 |
| QAQAQVYAQQSTVQTPI [PGD1] | 2.8 ± 0.052 | 2.91 ± 0.055 | 2.83 ± 0.048 | 2.95 ± 0.059 |
| ELSIRDVTHTLGMLDDN [SMC4] | 3.13 ± 0.091 | 3.04 ± 0.082 | 3.22 ± 0.049 | 3.27 ± 0.097 |

| Sequence | protein stability index (doa10∆) | protein stability index (pdr5∆) | protein stability index (san1∆) | protein stability index (ubr1∆) |
| --- | --- | --- | --- | --- |
| SKIQEIESIRSCKDSQL [YIL149C/MLP2] | 2.29 ± 0.044 | 2.92 ± 0.054 | 2.77 ± 0.041 | 2.79 ± 0.047 |
| PPKPRKVLQLLRLTRIN [RPL7A] | 1.95 ± 0.095 | 1.57 ± 0.077 | 1.7 ± 0.12 | 1.09 ± 0.061 |
| NVTGGKAANFIQNQSPQ [SWI1] | 2.77 ± 0.062 | 2.79 ± 0.063 | 2.87 ± 0.051 | 2.99 ± 0.047 |
| MKFQESLKKVDEIKAQR [SMC4] |  | 3.57 ± 0.26 | 3.34 ± 0.17 | 3.57 ± 0.082 |
| DVNALKFNNTQRESQIG [SNF12] | 2.31 ± 0.092 | 2.75 ± 0.067 | 2.68 ± 0.077 | 3.12 ± 0.063 |
| ENDNLDNVSKNALDKLR [YCG1] | 3.29 ± 0.099 | 3.15 ± 0.16 | 3.08 ± 0.08 | 3.26 ± 0.1 |
| KDSNKDVVVEGLRRARY [RPL10] | 3.26 ± 0.097 | 3.34 ± 0.071 | 3.38 ± 0.072 | 3.38 ± 0.058 |
| FIEVRNFLGDKKIRNVP [RPL9A] |  |  |  | 3.16 ± 0.12 |
| KKRNPSKQNGSKFHFSW [PRP28] | 2.78 ± 0.054 | 2.62 ± 0.05 | 2.52 ± 0.052 | 2.49 ± 0.038 |
| SSLLSRLISSKMPGGFT [FAS2] | 2.51 ± 0.069 | 2.41 ± 0.08 | 2.17 ± 0.094 | 2.89 ± 0.064 |
| TDKKAFLGALKYLPHAI [PRP8] | 2.94 ± 0.12 | 2.92 ± 0.097 | 3.19 ± 0.072 | 2.96 ± 0.054 |
| LVSVTSTLQHFQETLDS [MED8] | 2.4 ± 0.055 | 2.7 ± 0.063 | 2.43 ± 0.054 | 2.39 ± 0.048 |
| ELNDLKWGRNQPVNINL [YMR129W/POM152] | 2.8 ± 0.1 | 2.72 ± 0.086 | 2.83 ± 0.11 | 2.56 ± 0.068 |
| SLLLSSSFKEDCLSFAP [SSN2] | 2.56 ± 0.24 | 3.17 ± 0.14 | 2.76 ± 0.14 | 3.2 ± 0.19 |
| VHELSKRVHTLLTLIVR [ISW2] | 1.34 ± 0.091 | 1.44 ± 0.064 | 1.96 ± 0.16 | 1.37 ± 0.041 |
| PERFMVFQLPTRLPAFE [RPC53] | 2.31 ± 0.065 | 2.75 ± 0.054 | 2.54 ± 0.089 | 2.79 ± 0.058 |
| YGTATADDADIEMKDVS [MED1] | 3 ± 0.13 | 3.17 ± 0.081 | 3.01 ± 0.061 | 3.15 ± 0.071 |
| EVRQETQPKAEATQDDD [NUT1] | 3.08 ± 0.13 | 3.18 ± 0.071 | 3.4 ± 0.065 | 3.16 ± 0.074 |
| EVVSEAINIMNRSNDAL [FAS2] | 3.32 ± 0.12 | 3.44 ± 0.13 | 3.44 ± 0.049 | 3.31 ± 0.16 |
